Data as given in article PMC9769477 (2022).

Target: 9G1
Test: BLI

B1: CVA16/SZ05 viral particles (complex)
chain 1: GDPIADMIDQTVNNQVNRSLTALQVLPTAANTEASSHRLGTGVVPALQAAETGASSNASDKNLIETRCVLNHHSTQETAIGNFFSRAGLVSIITMPTTGTQNTDGYVNWDIDLMGYAQLRRKCELFTYMRFDAEFTFVVAKPNGELVPQLLQYMYVPPGAPKPTSRDSFAWQTATNPSVFVKMTDPPAQVSVPFMSPASAYQWFYDGYPTFGEHLQANDLDYGQCPNNMMGTFSIRTVGTEKSPHSITLRVYMRIKHVRAWIPRPLRNQPYLFKTNPNYKGNDIKCTSTSRDKITTL
chain 2: SPSAEACGYSDRVAQLTIGNSTITTQEAANIVIAYGEWPEYCPDTDATAVDKPTRPDVSVNRFFTLDTKSWAKDSKGWYWKFPDVLTEVGVFGQNAQFHYLYRSGFCVHVQCNASKFHQGALLVAVLPEYVLGTIAGGTGNENSHPPYATTQPGQVGAVLTHPYVLDAGIPLSQLTVCPHQWINLRTNNCATIIVPYMNTVPFDSALNHCNFGLLVIPVVPLDFNAGATSEIPITVTIAPMCAEFAGLRQAVKQ
chain 3: GIPTELKPGTNQFLTTDDGVSAPILPGFHPTPPIHIPGEVRNLLEICRVETILEVNNLKTNETTPMQRLCFPVSVQSKTGELCAAFRADPGRDGPWQSTILGQLCRYYTQWSGSLEVTFMFAGSFMATGKMLIAYTPPGGSVPADRITAMLGTHVIWDFGLQSSVTLVVPWISNTHYRAHARAGYFDYYTTGIITIWYQTNYVVPIGAPTTAYIVALAAAQDNFTMKLCKDTEDIEQTANIQ
chain 4: GSQVSTQRSGSHENSNSASEGSTINYTTINYYKDAYAASAGRQDMSQDPKRFTDPVMDVIHEMAPPLK
modifications: biotin (EZ-Link Sulfo-NHS-LC-LC-Biotin labelling of the particles before BLI; sites not stated) | biotin (EZ-Link Sulfo-NHS-LC-LC-Biotin labelling of the particles before BLI; sites not stated) | biotin (EZ-Link Sulfo-NHS-LC-LC-Biotin labelling of the particles before BLI; sites not stated) | biotin (EZ-Link Sulfo-NHS-LC-LC-Biotin labelling of the particles before BLI; sites not stated)
Work on B1 yielded a Kd of 460 pM and a koff of 0.000631 s⁻¹.
